Data reported in paper PMC7721647, “The Human RNA Helicase DDX21 Presents a Dimerization Interface Necessary for Helicase Activity” (iScience, 2020).
Numbering of substitutions follows the chain as printed. Blank lines part the entries; values can stand above or below the molecule they belong to.

What was measured:
DDX21_(Core-DD) (human) [1] = assay: SEC-SAXS; SAXS coupled to size exclusion chromatography; oligomeric state from SAXS molecular weight estimates (Table S3)
DDX21_(Core-DD) (human) [2] = assay: SEC-MALS; purified DDX21 constructs alone; conditions in the Transparent Methods (not shown)
DDX21_(Core-DD) (human) [3] = assay: mass photometry; purified proteins alone in the low nanomolar range (30 and 15 nM); monomer to dimer
[4] = target: the molecule itself; assay: cell-based or functional assay
[5] = target: the molecule itself; assay: SEC-SAXS; SAXS coupled to size exclusion chromatography; oligomeric state from SAXS molecular weight estimates (Table S3)
[6] = target: the molecule itself; assay: mass photometry; DDX21Fl-R-loop complex at 30 nM
[7] = target: the molecule itself; assay: SEC-MALS; purified DDX21 constructs alone; conditions in the Transparent Methods (not shown)
DDX21Fl = target: T1, DDX21Fl (human, UniProt Q9NR30 1-783); assay: fluorescence polarization; FP: 50 mM Tris pH 7.5, 50 mM KCl, 5 mM MgCl2, no ATP; Hill-slope fit; temperature not given in the material; settings: protein: recombinant; tags: N-terminal Trx-His6, cut with thrombin; chain copies: 2; label: 5'-FAM on RNA; R-loop: 15-mer RNA on DNA oligo 1; DNA duplex arms with unpaired DNA oligo 2 loop
T1 sequence: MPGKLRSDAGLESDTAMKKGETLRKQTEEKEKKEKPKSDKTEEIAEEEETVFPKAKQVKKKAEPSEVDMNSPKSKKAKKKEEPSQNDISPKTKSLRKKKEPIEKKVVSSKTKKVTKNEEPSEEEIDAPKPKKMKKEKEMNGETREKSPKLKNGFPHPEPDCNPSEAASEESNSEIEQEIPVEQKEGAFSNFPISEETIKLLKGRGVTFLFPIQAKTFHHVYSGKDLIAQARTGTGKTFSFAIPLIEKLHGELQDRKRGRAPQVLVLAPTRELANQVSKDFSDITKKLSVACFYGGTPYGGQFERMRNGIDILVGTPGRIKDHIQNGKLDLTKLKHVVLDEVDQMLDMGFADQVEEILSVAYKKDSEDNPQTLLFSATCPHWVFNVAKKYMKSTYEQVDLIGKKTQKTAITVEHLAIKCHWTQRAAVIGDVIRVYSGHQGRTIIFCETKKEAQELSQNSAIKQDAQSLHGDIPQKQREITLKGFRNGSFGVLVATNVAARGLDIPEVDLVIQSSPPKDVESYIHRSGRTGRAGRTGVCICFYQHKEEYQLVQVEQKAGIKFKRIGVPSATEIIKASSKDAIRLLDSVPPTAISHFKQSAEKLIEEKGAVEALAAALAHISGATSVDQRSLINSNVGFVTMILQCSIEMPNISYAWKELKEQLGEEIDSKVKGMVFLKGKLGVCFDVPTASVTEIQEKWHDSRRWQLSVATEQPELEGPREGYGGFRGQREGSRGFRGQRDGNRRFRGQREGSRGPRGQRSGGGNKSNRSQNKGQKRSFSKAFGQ

stoichiometry N (DDX21_(Core-DD) (human) [1]): 2
stoichiometry N (DDX21_(Core-DD) (human) [2]): 2
stoichiometry N (DDX21_(Core-DD) (human) [3]): 2
Molecule: DDX21_(Core-DD) (domain or fragment)

B1: DDX21ΔN monomer mutant (domain or fragment)
chain: GAFSNFPISEETIKLLKGRGVTFLFPIQAKTFHHVYSGKDLIAQARTGTGKTFSFAIPLIEKLHGELQDRKRGRAPQVLVLAPTRELANQVSKDFSDITKKLSVACFYGGTPYGGQFERMRNGIDILVGTPGRIKDHIQNGKLDLTKLKHVVLDEVDQMLDMGFADQVEEILSVAYKKDSEDNPQTLLFSATCPHWVFNVAKKYMKSTYEQVDLIGKKTQKTAITVEHLAIKCHWTQRAAVIGDVIRVYSGHQGRTIIFCETKKEAQELSQNSAIKQDAQSLHGDIPQKQREITLKGFRNGSFGVLVATNVAARGLDIPEVDLVIQSSPPKDVESYIHRSGRTGRAGRTGVCICFYQHKEEYQLVQVEQKAGIKFKRIGVPSATEIIKASSKDAIRLLDSVPPTAISHFKQSAEKLIEEKGAVEARRRRRRHISGATSVDQRSLINSNVGFVTMILQCSIEMPNISYAWKELKEQLGEEIDSKVKGMVFLKGKLGVCFDVPTASVTEIQEKWHDSRRWQLSVATEQPELEGPREGYGGFRGQREGSRGFRGQRDGNRRFRGQREGSRGPRGQRSGGGNKSNRSQNKGQKRSFSKAFGQ
dsRNA unwinding (in vitro helicase assay with RNase T1), activity relative to the dimeric protein [4]: ~50%

B2: DDX21ΔN (domain or fragment, human, UniProt Q9NR30 186-783, looked up)
chain: B1 chain with R426L, R427A, R428A, R429A, R430L, R431A
notes: human DDX21 without the N-terminal 185 amino acids (start 186 worked out from this statement); source: Transparent Methods
stoichiometry N [5]: 2

B3: DDX21Fl monomer mutant (enzyme)
chain: T1 sequence with L611R, A612R, A613R, A614R, L615R, A616R
dsRNA unwinding (in vitro helicase assay with RNase T1), activity relative to the dimeric protein [4]: ~50%

B4: full-length DDX21 (DDX21Fl) with uncleaved affinity tag (enzyme, human, UniProt Q9NR30 1-783, looked up)
chain: T1 sequence
notes: human DEAD-box RNA helicase DDX21, full length; Form used in mass photometry; also called wild-type protein; source: Transparent Methods
stoichiometry N [6]: 2

B5: full-length DDX21 (DDX21Fl), affinity tag cleaved (enzyme, human, UniProt Q9NR30 1-783, looked up)
chain: T1 sequence
notes: human DEAD-box RNA helicase DDX21, full length; Tag state is told only for the SEC-MALS mass (cleaved); Construct details are in the Transparent Methods; also called nucleolar RNA helicase II/Guα; source: Transparent Methods
stoichiometry N [7]: 2

B6: R-loop (mixed)
RNA: GUUUCGGAUCGACGC
DNA 1: GTACCCGGGGATCCTCTAGAGTCGAGCGTCGATCCGAAACTTGGCACTGGCCGTCGTTTTACAAC
DNA 2: GTTGTAAAACGACGGCCAGTGCCTTTTCCCAGCCTCAATCTCATCACTCTAGAGGATCCCCGGGTAC
Kd (DDX21Fl): 9.2 ± 0.7 nM
